Test results from the RNAGym collection of RNA variant scans (doi:10.1073/pnas.2313332121).
This sample holds only a part of the variants without activity.

B1: TPR 5TU (parent)
chain: GGAUCUUCUCGAUCUAACAAAAAAGACAAAUCUGCCACAAAGCUUGAGAGCAUCUUCGGAUGCAGAGGCGGCAGCCUUCGGUGGCGCGAUAGCGCCAACGUUCUCAACUAUGACACGCAAAACGCGUGCUCCGUUGAAUGGAGUUUAUCAUG

Variants of: B1
Assay: polymerase ribozyme fitness, log enrichment relative to wild type (log ratio); higher = more active; in vitro selection for triplet polymerase activity
Summary of the method: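 Each subunit of a heterodimeric triplet polymerase ribozyme was represented by a PCR-built, transcribed mutant library that underwent triplicate single-round in vitro selection with frozen incubation at −7 °C. Extended constructs were recovered by gel excision, streptavidin-bead capture and RT-PCR, and Illumina sequencing of input and output libraries kept genotypes with ≥10 input reads and ≥1 read per output. Fitness is the logarithm of genotype enrichment relative to wild-type enrichment, from inverse-variance-weighted replicate averages, with a logarithm base of 2.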

Variant	polymerase ribozyme fitness (log ratio)
GGAUGUCCUCGAUCUCACAAAAAAGAUAAAUGUGCCACAAAGCUUGAGCGCAGCUUCGGAUGCAGAGGCGGCAGCCUUCGGUGGCGCGAUAGCGCCAACGUUCUCAACUAUGACACGCAAAACGAGUGCUCCGUUGUAUGGACUUUAUCAUG	≤ -4.2
GGAUGUUCUCGAUCUAACAAAAAAGACAAAACUGCCACAAAGCUUGAGAGCAUUUUCGGAUGCAGACGCGGCAGCCUUCGGUGGCGCGAUAGCGCCAACGUUCUCAACUUUGACACGCAAGACGCGUGCUCCGUUGAAUGGAGUUUAUCAUG	≤ -4.2
GGAUGUUCCCGAUCUAACAAAAAAGACAAAUCUGCCACAAAGCUUGAGAGCAUCUUCGGAUGCAGAGGCGGCAGCCUUCGGUGGCGCGAUAGCGCCGACGUUCUCAACUAUGACACGCAAAACGCGUGCUCCGUUGAAUGCAGUUUAUCAUG	-3.27
GGAUGUUCUCGAUCUAACAAAAAAGACAAAUCUGCCACAAAGCUUGAGAGCAUCUUCGGAUGCAGAGGCGGCAGCCUCCGGUGACGCGAUAGCGCCAACGUUCUCAACUAUGACACGCAAAACGCGUGCUCCGUUUAAUGGAGUUUAUCAUG	-3.39
GGAUGUUCUCGAUCUAACAAAAAAGACAAAUCUGCCACAAAGCUGGAGAGCAUCUUCGGAUGCAGAGGCGGCAGCCUUCGGUGGCUCGAUAGGGCCGACGUUCUCAACUAUGACACGCAAAACGCGUGCUCCGUUGAAUGGAGUUUAUCAUG	-3.16
GGAUGUUCUCGAUCUAACAAAAAAGACAAAUCUGCCACAAAGCUUGAGAGCAGCUUAGGAUGCAGAGGCGGCAGCCUUCCGUGGCGCGAUUGCGCCAACGUUCUCAACUAUGACACGCAAAACGCGUGCUCCGUUGAAUGGAGCUUAUCAUG	≤ -4.2
GGAUGUUCUCGAUCUAACAAAAAAGACAAAUCUGCCACAAAGCUUGAGAGCAUCUUCGGAUGCAGAGGCGGCAGCCUUCGGAGGCGCGAUAGCGUCAACGUUCUCAACUAUGACACGCAAAACGCGUGCUCCGUUGAAUGGAGUUUAUCAUG	-0.788
GGAUGUUCCCGAUCUCACAAAAAAGACGAUUGUGACACAAAGCUUGAGAGCAUCUUCGUAUGCAGAGGCGGCAGCCUUCGGUGGCGCGAUAUCGCCAACGUUCUUAACUAUGACACGCAAAACGCGUGCUCCGUUGAAUGGAGUUUAUCAUG	≤ -4.2
GGAUGUUCUCGAUCUAACAAAAAAGACAAAUCUGCCACAAAGCUUGAGAGCAUCUUCGGAUGCAGAGGCGGCAGCCUUCGGGGGCUCGAUAGCGCCAACGUUCUCAACUAUGACACGCAAGACGCGUGCUCCGUUGAAUGGAGUUUAUCAUG	-2.13
GGAUGUUCUCGAUCUAACAAAAAAGACAAAUCUGCCACAAAGCUGGAGAGCAUCGUCGGAUGCAGAGGCGGCAGCCUUCGGUGGCUAGAUUGCGCCAACGUUCUCAACUAUGACACGCAAAACGCGUGCUCCGUUGAAUGGAGUUUAUCAUG	≤ -4.2
GGAUGUUCUCGAUCUAACAAAAAAGACAAAUCUGCCACAAAGCUUGAGAGCAUCUACGGAUGCAGAGGCGGCAGCCUUCGGUGGCGCGAUAGCCCCAACGUUCUCAACUAUGACACGCAGAACGCGUGCUCCGUUGAAUGGAGUUUAUCAUG	-1.95
GGAUGUUCUCGAUCUAACAAAAAAGACAAAUCUGCCACAAAGCUUGAGAGCAACUUCGGAUGCAGAGGCGGCAGCCUUCGGUGGCGCGAUAGCACCAACGUUCUCAACUAUGACACGCAAAACGAGUGCUCCGUUGAACGGCGUUUAUCAUG	≤ -4.2
GGAUGUUCUCGAUCUAACAAAAAAGACAAAUCUGCCACAAAGCUUGAGAGCAUCGUCGGAUGCAGAGGCGGCAGCCUUCGGUUGCGCGAUAGCGCCAACGCUCUCAACUAUGACACGCAAAACGCGUGCUCCGUUGAAUGGAGUUUAUCAUG	-2.49
GGAUUUUCUCGAUCUACCAAAAAAGACAAAUCUGCCACAAAGCUUGAGAACAUCUUCGGAUGCAGAGGCGGCAGCCAUCGGUGGCGGGAUCGCGCCAACGUUCUCUACGAUGACACGCAAAACGCGUGCUCCGUUGAAUGGAGUUUAUCAUG	≤ -4.2
GGAUGUUCUCGAUCUAACAAAAAAGACAAAUCUGCCACAAAGCUUGAGAGCAUCUUCGGAUGCAGAGGCGGCAGCCUUCGGUGGCGCGAUAGCGCCAACGUUCUCAACUAUGACACGCAAAACGCGUGCUCCGUUGAAUGGAGGUUAUCAUG	0.355
GGAUGUUCUCGAUCGAACAAAAAAGACAAAUCUGCCACAAAGCUUGAGAGCGUCUUCGGAUGCAGAGGCGGCAGCCUUCGGUGGCGCGAUAGCGCCAACGUUCUCAACUAUGACACGCAAAACGCGUGCUCCGUUGAAUGGAGUUUAUCAUG	-1.06
GGAUUUUCUCGAUCUAACAAAAAAGACAAAUCUGCCACAAAGCUUGAGAGCAUCUUCGGAUGCAGAGGCGGCAGCCUUCGGUGGCGCGAUAGCGCCAACGUUCUCAACUAUGACACGCAAAACGCGUGCUCCGUUGAAUGGAGUUUAUCAUG	0.998
GGAUGUUCUCGAACUAACAAAAAAGACAGAUCUGCCACAAAGCUUGAGAGUAUCUUCGGAUGCAGAGGCGGCAGCCUUCGGUGGCGCGAUAGCCCCAACGUUCUCAACUAUGAGACGCAAAACGCGUGCUCCGUUGAAUCCAGAUUAUCAUG	≤ -4.2
GGAUGUUCUCGAACUAACAAAAUAGACAAAUCUGCCACAAAGCUUGAGAGCCUCUUCGGAUGCAGAGGCGGCAGCCUUCGGUGGCGAGAUAGCGCCAACGUUCUUAGCUAUGACACGCAAAACGCGUGCUCCGUUGAAUGGAGUUUAUCAUG	≤ -4.2
